Changes are numbered by the printed parent chain.
T1: N-Term Biotin Nav1.7 (3-1) peptide, mouse (mouse, not fully specified; N-terminal biotin attached via a G4S linker)
T1 construct: Synthetic peptide; also called Mouse Nav1.7 3-1 N-term biotin
T1 peptide: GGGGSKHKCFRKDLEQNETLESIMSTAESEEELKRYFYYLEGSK

T2: Native Nav1.7 (3-1) peptide, human (human)
T2 construct: Synthetic peptide (Celtek), unbiotinylated; also called Human Nav1.7 3-1 native; Nav1.7 3-1 native peptide
T2 peptide: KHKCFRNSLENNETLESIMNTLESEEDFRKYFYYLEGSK

T3: Native Nav1.7 (3-1) peptide, rat (rat)
T3 construct: Synthetic peptide; also called Rat Nav1.7 3-1 native
T3 peptide: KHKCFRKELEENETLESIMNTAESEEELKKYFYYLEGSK

T4: N-Term Biotin Nav1.7 (3-1) peptide, mulatta (mulatta (monkey), not fully specified; N-terminal biotin attached via a G4S linker)
T4 construct: Synthetic peptide; also called Mulatta Nav1.7 3-1 N-term biotin; monkey
T4 peptide: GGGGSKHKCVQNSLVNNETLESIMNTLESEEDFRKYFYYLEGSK

T5: Native Nav1.7 (3-3) peptide, human (human)
T5 construct: Synthetic peptide, unbiotinylated; also called Human Nav1.7 3-3 native; Nav1.7 3-3 native peptide
T5 peptide: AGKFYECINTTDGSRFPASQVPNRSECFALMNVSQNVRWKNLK

B1: H1M797N (antibody, V domains shown)
VH: QVQLVESGGGVVQPGRSLRLSCAASGFTFSSYGMHWVRQAPGKGLEWVAVISYDGNNKHFADSVKGRFTISRDNSKNTLNLQMNSLRAEDRAVYYCARGASGFVLDIWGQGTMVTVSS
VL: DIVMTQTPLSSPVTLGQPASISCRSSQSLVRSDGNTYLSWLQQRPGQPPRLLIYKISNRFSGVPDRFSGSGAGTDFTLKISRVEAEDVGIYFCMQTTQFPFTFGPGTKVDIK
B2: H1H1006B (antibody, V domains shown)
VH: EVQLVESGPGLVKSSETLSLKCTVSGGSISSSGYYWGWIRQPPGKGLEWIGSIHRSGSTFYNPSLKSRVTISVDTSKSQFSLRLTSVTAADTSVYFCGRHGRDYYYGMDVWGQGTTVTVSS
VL: DIQMTQSPSSVSASVGDRVTITCRSSQDINNWLVWYQQKPGKAPKVLIYGASRLQSGVPSRFSGSGSGTDFTLTISSLQPEDFATYYCQQANSFPLTFGGGTKVEIKR
notes: Fully human antibody; also called H4H1006B-1
B3: H1M852N (antibody, V domains shown)
VH: QVQLVESGGGVVQPGRSLTLSCAASGFMFNRFGMHWVRQAPGKGLDWVAVIWYDGSNKYYADSVKGRFTISRDNSKNTLYLQVNSLRAEDTAVYYCAREGTPHYYDSSGLDYWGQGTLVTVSS
VL: AIQMTQSPSSLSAYVGDRVTITCRASQDIRNDLGWYQQKPGKAPNLLIYDISSLQSGVPSRFSGSGSGTDFTLTISSLQPEDFATYYCLQDYNYPLTFGGGTKVEIK
notes: constant region may differ; also called H4H852N
B4: H1M879N (antibody, V domains shown)
VH: EVQLVESGGGLVKPGGSLRLSCAASGFTFSSYTIHWVRQAPGKGLEWVSSISSSSSYIYYVDSVKGRFTISRDNAKNSVYLQMNSLRAEDTAVYYCATSSITARGYFDYWGQGTLVTVSS
VL: EIVLTQSPATLSLSPGERVTLSCRASQSVSSYLAWYQQKPGQAPRLLIYDASNRATGIPARFSGSGSGTDFTLTISSLEPEDFAVYYCQQRNIWPPTFGQGTKVEIK
notes: Hybridoma-derived
B5: H1M836N (antibody, V domains shown)
VH: QVQLVESGGGVVQPGRSLRLSCAASGFTFSSYGMHWVRQAPGKGLEWVAVISYDGNNKYYADSVKGRFTISRDNSKNTLYLQMNSLRAEDTAVYYCAKGSAGYALDYWGQGTLVTVSS
VL: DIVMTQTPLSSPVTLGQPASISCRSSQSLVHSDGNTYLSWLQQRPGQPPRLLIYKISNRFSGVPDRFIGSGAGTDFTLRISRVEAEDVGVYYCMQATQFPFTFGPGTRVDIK
B6: H1M801N (antibody, V domains shown)
VH: QVQVVESGGGVVQPGRSLRLSCAASGFTFSNYGMHWVRQAPGKGLEWVTVISYDGSNKNYADSVKGRFTISRDNSKNTLYLQMNSLRAEDTAMYYCARGGSGFAFDIWGQGTMVTVSS
VL: B1 VL with E86D, I90V, F92Y
notes: also called H1H801N

target: T6, full-length human Nav1.7 fused at its N-terminus to GFP, expressed in HEK293 cells (human, UniProt Q15858 1-1988); assay: cell-based or functional assay

Row | Current blocking (Average % inhibition), IonWorks Quattro, 223 nM antibody [%] | Binder
1 | -31 | B1
2 | 64 | B2
3 | 7 | B3

target: T6, full-length human Nav1.7 fused at its …; assay: flow cytometry on Nav1.7-GFP-HEK293, antibody 3.3 nM
Procedure: (§1) The specificity of binding of anti-Naᵥ 1.7 human antibodies to full-length Naᵥ 1.7 expressed in HEK293 cells was determined by peptide competition experiments using flow cytometry.
(§2) HEK293 cells stably-transfected with full-length Naᵥ 1.7 fused at its N-terminus to GFP (Naᵥ 1.7-GFP-HEK293) were used for this study. Antibody binding to the transfected cells overexpressing Naᵥ 1.7 was compared to binding in the presence of excess peptide and to binding to the parental HEK293 cell line. To perform the binding experiments, adherent cells were collected using 1 mM EDTA in PBS, washed and re-suspended in cold PBS containing 5% FBS. For each binding experiment the anti-Naᵥ 1.7 antibody at a final concentration of 3.3 nM (in PBS/5% FBS) was added to cells either directly or after incubating for 10 min on ice with a 1000-fold molar excess (3.3 uM final concentration in PBS/5% FBS) of synthetic peptide with sequence corresponding to the loop specificity of the antibody. The antibodies designated as H4H391P, H4H443B, H4H448B, and H1M797N were preincubated as described above with a synthetic peptide corresponding to EC loop 3-1 (amino acid residues 269-338 of SEQ ID NO: 670), whereas the antibodies designated as H4H468P and H1 M852N were preincubated with a synthetic peptide corresponding to EC loop 3-3 (amino acid residues 1333-1382 of SEQ ID NO: 670). The antibody or antibody-peptide mixture was then allowed to incubate with cells for 20 min on ice, followed by addition of 500 uL of cold PBS/5% FBS. Cells were collected by centrifugation, resuspended in 500 uL of cold PBS/5% FBS, and then secondary antibody matched to the antibody isotype (either anti-human-Fc conjugated to Cyanine 5 or anti-mouse-Fc conjugated to allophyococyanin) was added. Binding was detected on the flow cytometry instrument and analyzed as percent binding using the instrument software. For FACS analysis appropriate gating was applied so that only healthy, live cells were counted. Background staining of secondary antibodies alone to Naᵥ 1.7-GFP-HEK293 cells was tested and recorded for all samples, and results ranged between 1-2% binding.

Row | % Binding Nav1.7 (Stable Line) [%] | Binder
4 | 63 | B4
5 | 68.9 | B5
6 | 45.4 | B1
7 | 49.5 | B6
8 | 64.1 | B3

Target: T1, N-Term Biotin Nav1.7 (3-1) peptide, …
Assay: SPR, captured antibody, peptide analyte
How it was run: (§3)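 Peptide analytes flowed at multiple concentrations over anti-Nav1.7 antibodies held by an anti-Fc capture surface. After reference-surface and buffer-blank subtraction, a global 1:1 Langmuir fit gave ka and kd, with KD as kd/ka and dissociative half-life as ln2/kd.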

Row | binding result | Kd [nM] | t1/2 [min] | Binder
9 | no binding | – | – | B4
10 | – | 7.4 | 4.6 | B1
11 | – | 3.53 | 4.2 | B6
12 | – | 103 | 0.62 | B2

Target: T2, Native Nav1.7 (3-1) peptide, human
Assay: SPR, captured antibody, peptide analyte
How it was run: as §3

Row | Kd [nM] | t1/2 [min] | Binder
13 | 4.43 | 3 | B4
14 | 332 | 0.3 | B5
15 | 0.462 | 16 | B1
16 | 3.73 | 4.3 | B6
17 | 16.4 | 3.3 | B2

Target: T3, Native Nav1.7 (3-1) peptide, rat
Assay: SPR, captured antibody, peptide analyte
How it was run: as §3

Row | binding result | Kd [nM] | t1/2 [min] | Binder
18 | no binding | – | – | B4
19 | – | 298 | 0.1 | B5
20 | – | 2.57 | 5.8 | B1
21 | – | 4.16 | 3.6 | B6
22 | – | 33.9 | 0.74 | B2

Target: T4, N-Term Biotin Nav1.7 (3-1) peptide, …
Assay: SPR, captured antibody, peptide analyte
How it was run: as §3

Row | Kd [nM] | t1/2 [min] | Binder
23 | 1.05 | 11.7 | B4
24 | 18.1 | 1.7 | B5
25 | 0.435 | 43.7 | B1
26 | 0.889 | 16.8 | B6
27 | 6.1 | 7.5 | B2

Target: T5, Native Nav1.7 (3-3) peptide, human
Assay: Biacore (second token of ELISA/Biacore summary)

Row | Kd [nM] | Binder
28 | > 200 | B3

Target: T5, Native Nav1.7 (3-3) peptide, human
Assay: Biacore (second token of ELISA/Biacore summary)
Remark: another data set of the same source

Row | Kd [nM] | Binder
29 | > 200 | B3

target: T6, full-length human Nav1.7 fused at its …; assay: flow cytometry on Nav1.7-GFP-HEK293, antibody 3.3 nM preincubated with 3.3 uM EC 3-1 peptide as competitor
Procedure: as §1, §2

Row | % Binding Nav1.7 + 1000x Peptide (Competition Binding) [%] | Binder
30 | 1.3 | B4
31 | 2.2 | B5
32 | 10.8 | B1
33 | 1.9 | B6
